Experimental data as given in patent US20250382376A1 (FUDAN UNIVERSITY, published 2025).

T1: CD73 on the surface of human cells (human, UniProt P21589 27-549)
T1 construct: whole, on cells; The cell line of each value is named under assay or readout; also called CD73 on the surface of tumor cells; CD73 enzyme on the surface of MDA-MB-231 cells
T1 sequence (looked up): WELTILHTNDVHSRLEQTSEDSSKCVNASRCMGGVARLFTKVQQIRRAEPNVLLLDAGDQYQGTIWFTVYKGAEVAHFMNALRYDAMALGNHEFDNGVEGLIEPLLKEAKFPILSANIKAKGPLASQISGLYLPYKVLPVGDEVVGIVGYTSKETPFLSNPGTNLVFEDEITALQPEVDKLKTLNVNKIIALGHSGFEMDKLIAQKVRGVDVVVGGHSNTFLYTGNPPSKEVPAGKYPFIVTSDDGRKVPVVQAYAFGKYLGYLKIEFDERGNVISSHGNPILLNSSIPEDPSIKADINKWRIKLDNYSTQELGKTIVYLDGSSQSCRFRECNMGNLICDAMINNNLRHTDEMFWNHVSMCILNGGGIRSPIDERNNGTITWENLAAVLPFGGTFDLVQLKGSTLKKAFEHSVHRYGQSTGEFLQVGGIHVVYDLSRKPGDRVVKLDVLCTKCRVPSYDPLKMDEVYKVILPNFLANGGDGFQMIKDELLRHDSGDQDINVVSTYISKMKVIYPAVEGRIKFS

T2: extracellular domain of human CD73 protein, C-terminus polyhistidine-tagged (human, UniProt P21589 27-547)
T2 construct: also the immunogen; also called CD73-ECD; human CD73-ECD
T2 sequence: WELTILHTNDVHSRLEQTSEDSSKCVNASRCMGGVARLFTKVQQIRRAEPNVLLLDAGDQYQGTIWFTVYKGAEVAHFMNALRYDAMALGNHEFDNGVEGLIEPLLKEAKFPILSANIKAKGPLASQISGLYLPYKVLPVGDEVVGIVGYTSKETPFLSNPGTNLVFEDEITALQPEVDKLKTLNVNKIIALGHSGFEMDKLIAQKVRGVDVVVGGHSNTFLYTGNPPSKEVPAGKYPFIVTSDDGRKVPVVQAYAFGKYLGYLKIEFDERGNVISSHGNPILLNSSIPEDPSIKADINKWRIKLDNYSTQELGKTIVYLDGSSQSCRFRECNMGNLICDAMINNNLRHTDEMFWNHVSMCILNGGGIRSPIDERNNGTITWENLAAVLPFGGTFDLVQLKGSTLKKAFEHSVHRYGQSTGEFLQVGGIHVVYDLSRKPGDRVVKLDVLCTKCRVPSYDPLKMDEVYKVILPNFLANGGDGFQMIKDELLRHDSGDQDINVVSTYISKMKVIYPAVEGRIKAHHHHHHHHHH

B1: chimeric nanobody 4-D04 (Fc fusion)
VHH: QLQLVESGGGLVQPGGSLRLSCAASGFTLDYYNIGWFRQAPGKEREGVSCISSSEGSTYYADSVKGRFTISRDNAKNTVYLQMNSLKPEDTAVYYCAADRYYYCSLHVSQYDYWGQGTLVTVSS
notes: Human-alpaca chimeric antibody
B2: chimeric nanobody 4-B02 (Fc fusion)
VHH: EVQLVESGGGLVQPGGSLRLSCAASGFPLDYYSIGWFRQAPGKEREGVSCIGSSDGSTYYADSVKGRFTISRDNAENTVWLQMNSLKPEDTAVYYCAALKYYYCSGHEAIYDYWGQGTQVTVSG
notes: as for B1
B3: chimeric nanobody 3-D7 (Fc fusion)
VHH: QRQLVESGGGLVQPGGSLRLSCAASGFLLDYYVIGWFRQAPGKEREGVSCISGSDRSTYYADSVKGRFTISRDNAKNTVYLQMNSLKPEDTAVYFCAADPSPVTVQAMCLPRFPVPYWGQGTQVTVST
notes: Human-alpaca chimeric antibody (VHH on hIgG1 Fc); Only the VHH is tied to the tested molecule; 37-39 exist for 3-D7-FC1/FC2/FC3; also called original antibody 3-D7
B4: chimeric nanobody 5-E11 (Fc fusion)
VHH: ALQLVESGGGLVQPGGSLRLSCEVSGFTLDYYNIGWFRQAPGKEREGVSCSSNSGGSTYYADSVKGRFTISRDNAKNTVYLQMNSLKPEDTGVYYCAAYRGWHPSLDARVYDYWGQGTEVTVSS
notes: Human-alpaca chimeric antibody (VHH on hIgG1 Fc); Only the VHH is tied to the tested molecule; also called original antibody 5-E11

Molecular target: T1, CD73 on the surface of human cells
Experiment: flow cytometry on SW1573 cells
Experimental: (§1) 100 μL of the test antibodies diluted from 10 μg/mL to 0.016 μg/mL in a 5-fold gradient were used as the primary antibodies, and were mixed with 1×10⁵ tumor cells suspended in 100 μL RPMI-1640 serum-free medium to make a final concentration of 5 μg/mL diluted to 0.008 μg/mL, and then incubated at 4° C. for 1 h. The cells were washed twice with PBS to remove unbound primary antibodies, and then the target cells were incubated with 200 μLPE-labeled secondary antibody at 2 μg/mL at 4° C. for 30 min. The cells were washed twice with PBS to remove unbound secondary antibodies, and finally the cells were resuspended in 200 μL PBS. The binding affinity of the test antibodies to CD73 on the surface of the corresponding cells was measured by flow cytometry.

Binder	EC50 [µg/mL]
B1	0.067
B2	0.061
B3	0.116

Molecular target: T1, CD73 on the surface of human cells
Experiment: Flow cytometry on HCC44 cells, PE-labelled secondary antibody
Experimental: as §1

Binder	Max MFI [MFI]
B1	145000
B2	136000
B4	130000
B3	135000

Molecular target: T1, CD73 on the surface of human cells
Experiment: flow cytometry on NCI-H1975 cells
Experimental: as §1

Binder	EC50 [µg/mL]
B1	0.068
B2	0.055
B4	0.057
B3	0.106

Molecular target: T1, CD73 on the surface of human cells
Experiment: flow cytometry on NCI-H1299 cells

Binder	EC50 [µg/mL]
B1	0.08
B2	0.078
B4	0.068

Molecular target: T1, CD73 on the surface of human cells
Experiment: Flow cytometry on NCI-H1975 cells, PE-labelled secondary antibody [panel B]
Experimental: as §1

Binder	Max MFI [MFI]
B1	86100
B2	82700
B4	79700
B3	80900

Molecular target: T1, CD73 on the surface of human cells
Experiment: flow cytometry on HCC44 cells
Experimental: as §1

Binder	EC50 [µg/mL]
B1	0.114
B2	0.105
B4	0.096
B3	0.234

Molecular target: T1, CD73 on the surface of human cells
Experiment: flow cytometry on MDA-MB-231 cells
Experimental: as §1

Binder	EC50 [µg/mL]
B1	0.059
B2	0.037
B4	0.037
B3	0.12

Molecular target: T1, CD73 on the surface of human cells
Experiment: Flow cytometry on SW1573 cells, PE-labelled secondary antibody [panel A]
Experimental: as §1

Binder	Max MFI [MFI]
B1	71300
B2	73800
B4	69600
B3	71000

Molecular target: T2, extracellular domain of human CD73 …
Experiment: ELISA on coated human CD73-ECD, HRP-protein A detection; fitted upper plateau of the OD450 curve
Set-up: unit not given here
Experimental: The CD73 protein extracellular region (CD73-ECD) was diluted to 1 μg/mL using the coating solution, and an ELISA plate was coated at 100 μL/well at 4° C. overnight. Excess antigens were washed away, and the plate was blocked with 1% BSA at room temperature for 2 hours. Then, 5-fold gradient dilutions of each monoclonal antibody were added at 100 μL/well and incubated at room temperature for 1 hour. Unbound antibodies were washed away, and an appropriate concentration of Staphylococcal protein A labeled with horseradish peroxidase was added at 100 μL/well and incubated at room temperature for 0.5 hours. Unbound secondary antibodies were washed away, and TMB color development solution was added to react for about 15 minutes. 1M HCL was added at 50 µL/well to terminate the color development reaction, and then the absorbance was measured at 450 nm and the data was analyzed.

Binder	Top (%)
B1	2.08
B2	2
B4	2.28
B3	1.79

Molecular target: T1, CD73 on the surface of human cells
Experiment: Flow cytometry on NCI-H1299 cells, PE-labelled secondary antibody [panel B]
Experimental: as §1

Binder	Max MFI [MFI]
B1	168000
B2	170000
B4	157000
B3	155000

Molecular target: T1, CD73 on the surface of human cells
Experiment: flow cytometry on PC9 cells
Experimental: as §1

Binder	EC50 [µg/mL]
B1	0.057
B2	0.044
B4	0.041
B3	0.133

Molecular target: T1, CD73 on the surface of human cells
Experiment: Flow cytometry on MDA-MB-231 cells, PE-labelled secondary antibody [panel A]
Experimental: as §1

Binder	Max MFI [MFI]
B1	79300
B2	69500
B4	64500
B3	69600

Molecular target: T1, CD73 on the surface of human cells
Experiment: flow cytometry on NCI-H1373 cells
Experimental: as §1

Binder	EC50 [µg/mL]
B1	0.163
B2	0.112
B4	0.135
B3	0.227
